From IntAct's records for PubMed 19909340 come the findings set out here.

B1: Broad substrate specificity ATP-binding cassette transporter ABCG2 (Homo sapiens), Q9UNQ0 (parent)
chain: MSSSNVEVFIPVSQGNTNGFPATASNDLKAFTEGAVLSFHNICYRVKLKSGFLPCRKPVEKEILSNINGIMKPGLNAILGPTGGGKSSLLDVLAARKDPSGLSGDVLINGAPRPANFKCNSGYVVQDDVVMGTLTVRENLQFSAALRLATTMTNHEKNERINRVIQELGLDKVADSKVGTQFIRGVSGGERKRTSIGMELITDPSILFLDEPTTGLDSSTANAVLLLLKRMSKQGRTIIFSIHQPRYSIFKLFDSLTLLASGRLMFHGPAQEALGYFESAGYHCEAYNNPADFFLDIINGDSTAVALNREEDFKATEIIEPSKQDKPLIEKLAEIYVNSSFYKETKAELHQLSGGEKKKKITVFKEISYTTSFCHQLRWVSKRSFKNLLGNPQASIAQIIVTVVLGLVIGAIYFGLKNDSTGIQNRAGVLFFLTTNQCFSSVSAVELFVVEKKLFIHEYISGYYRVSSYFLGKLLSDLLPMRMLPSIIFTCIVYFMLGLKPKADAFFVMMFTLMMVAYSASSMALAIAAGQSVVSVATLLMTICFVFMMIFSGLLVNLTTIASWLSWLQYFSIPRYGFTALQHNEFLGQNFCPGLNATGNNPCNYATCTGEEYLVKQGIDLSPWGLWKNHVALACMIVIFLTIAYLKLLFLKKYS

Variants of B1 are the subject of this experiment. Particulars: with ubc_human UBC.
As for N596Q, the “effect of a mutation on the interaction” value is listed as “increasing interaction”.
